Columns and labels:
human FcRn (human) = human FcRn (human) (UniProt P55899); experiment: SPR (Biacore); pH 6.0
[1] = target: Cynomolgus C5 (Cynomolgus); experiment: BLI (Gator); pH 7.4
[2] = target: Cynomolgus C5 (Cynomolgus); experiment: BLI (Gator); pH 5.8

Ka (human FcRn (human)): 1.13e+08 M⁻¹
Kd [1]: 6.04 nM
Kd [2]: 41.1 nM
Substance: anti-C5 mAb/FH SCR1-5 fusion protein FMEH-IgG4PLA-FH1-5 (from UniProt P08603 19-322)
